From article doi:10.64898/2025.12.03.692134 (bioRxiv, 2025)

T1: Torpedo nicotinic acetylcholine receptor δ subunit (Tetronarce californica (Pacific …, UniProt P02718 22-522))
T1 sequence: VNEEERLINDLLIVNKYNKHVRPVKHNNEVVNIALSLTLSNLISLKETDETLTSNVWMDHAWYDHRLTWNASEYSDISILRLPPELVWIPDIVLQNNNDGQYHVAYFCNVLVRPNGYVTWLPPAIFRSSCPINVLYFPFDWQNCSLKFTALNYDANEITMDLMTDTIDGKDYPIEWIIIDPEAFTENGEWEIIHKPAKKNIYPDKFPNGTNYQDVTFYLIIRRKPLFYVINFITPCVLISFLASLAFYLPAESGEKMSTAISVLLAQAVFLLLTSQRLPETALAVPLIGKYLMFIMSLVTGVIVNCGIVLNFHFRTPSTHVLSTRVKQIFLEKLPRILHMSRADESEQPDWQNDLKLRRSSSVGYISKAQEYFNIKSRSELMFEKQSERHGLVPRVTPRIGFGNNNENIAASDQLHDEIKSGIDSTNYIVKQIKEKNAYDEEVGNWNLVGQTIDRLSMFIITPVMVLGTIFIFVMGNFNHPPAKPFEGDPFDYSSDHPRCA

B1: Torpedo nicotinic acetylcholine receptor β subunit (receptor)
chain: SVMEDTLLSVLFETYNPKVRPAQTVGDKVTVRVGLTLTNLLILNEKIEEMTTNVFLNLAWTDYRLQWDPAAYEGIKDLRIPSSDVWQPDIVLMNNNDGSFEITLHVNVLVQHTGAVSWQPSAIYRSSCTIKVMYFPFDWQNCTMVFKSYTYDTSEVTLQHALDAKGEREVKEIVINKDAFTENGQWSIEHKPSRKNWRSDDPSYEDVTFYLIIQRKPLFYIVYTIIPCILISILAILVFYLPPDAGEKMSLSISALLAVTVFLLLLADKVPETSLSVPIIIRYLMFIMILVAFSVILSVVVLNLHHRSPNTHTMPNWIRQIFIETLPPFLWIQRPVTTPSPDSKPTIISRANDEYFIRKPAGDFVCPVDNARVAVQPERLFSEMKWHLNGLTQPVTLPQDLKEAVEAIKYIAEQLESASEFDDLKKDWQYVAMVADRLFLYVFFVICSIGTFSIFLDASHNVPPDNPFA

Key:
[1] = target: T1, Torpedo nicotinic acetylcholine …; assay: cryo-EM structure
[2] = target: B1; assay: cryo-EM structure

Row | Binder | binding result [1] | binding result [2]
1 | B1 | binds | 
2 | Torpedo nicotinic acetylcholine receptor α subunit (receptor) SEHETRLVANLLENYNKVIRPVEHHTHFVDITVGLQLIQLISVDEVNQIVETNVRLRQQWIDVRLRWNPADYGGIKKIRLPSDDVWLPDLVLYNNADGDFAIVHMTKLLLDYTGKIMWTPPAIFKSYCEIIVTHFPFDQQNCTMKLGIWTYDGTKVSISPESDRPDLSTFMESGEWVMKDYRGWKHWVYYTCCPDTPYLDITYHFIMQRIPLYFVVNVIIPCLLFSFLTGLVFYLPTDSGEKMTLSISVLLSLTVFLLVIVELIPSTSSAVPLIGKYMLFTMIFVISSIIITVVVINTHHRSPSTHTMPQWVRKIFIDTIPNVMFFSTMKRASKEKQENKIFADDIDISDISGKQVTGEVIFQTPLIKNPDVKSAIEGVKYIAEHMKSDEESSNAAEEWKYVAMVIDHILLCVFMLICIIGTVSVFAGRLIELSQEG |  | binds
